To fix the notation:
B1: Keratin, type II cytoskeletal 6A (Homo sapiens), P02538 (parent)
chain: MASTSTTIRSHSSSRRGFSANSARLPGVSRSGFSSVSVSRSRGSGGLGGACGGAGFGSRSLYGLGGSKRISIGGGSCAISGGYGSRAGGSYGFGGAGSGFGFGGGAGIGFGLGGGAGLAGGFGGPGFPVCPPGGIQEVTVNQSLLTPLNLQIDPTIQRVRAEEREQIKTLNNKFASFIDKVRFLEQQNKVLETKWTLLQEQGTKTVRQNLEPLFEQYINNLRRQLDSIVGERGRLDSELRGMQDLVEDFKNKYEDEINKRTAAENEFVTLKKDVDAAYMNKVELQAKADTLTDEINFLRALYDAELSQMQTHISDTSVVLSMDNNRNLDLDSIIAEVKAQYEEIAQRSRAEAESWYQTKYEELQVTAGRHGDDLRNTKQEIAEINRMIQRLRSEIDHVKKQCANLQAAIADAEQRGEMALKDAKNKLEGLEDALQKAKQDLARLLKEYQELMNVKLALDVEIATYRKLLEGEECRLNGEGVGQVNISVVQSTVSSGYGGASGVGSGLGLGGGSSYSYGSGLGVGGGFSSSSGRAIGGGLSSVGGGSSTIKYTTTSSSSRKSYKH
partner: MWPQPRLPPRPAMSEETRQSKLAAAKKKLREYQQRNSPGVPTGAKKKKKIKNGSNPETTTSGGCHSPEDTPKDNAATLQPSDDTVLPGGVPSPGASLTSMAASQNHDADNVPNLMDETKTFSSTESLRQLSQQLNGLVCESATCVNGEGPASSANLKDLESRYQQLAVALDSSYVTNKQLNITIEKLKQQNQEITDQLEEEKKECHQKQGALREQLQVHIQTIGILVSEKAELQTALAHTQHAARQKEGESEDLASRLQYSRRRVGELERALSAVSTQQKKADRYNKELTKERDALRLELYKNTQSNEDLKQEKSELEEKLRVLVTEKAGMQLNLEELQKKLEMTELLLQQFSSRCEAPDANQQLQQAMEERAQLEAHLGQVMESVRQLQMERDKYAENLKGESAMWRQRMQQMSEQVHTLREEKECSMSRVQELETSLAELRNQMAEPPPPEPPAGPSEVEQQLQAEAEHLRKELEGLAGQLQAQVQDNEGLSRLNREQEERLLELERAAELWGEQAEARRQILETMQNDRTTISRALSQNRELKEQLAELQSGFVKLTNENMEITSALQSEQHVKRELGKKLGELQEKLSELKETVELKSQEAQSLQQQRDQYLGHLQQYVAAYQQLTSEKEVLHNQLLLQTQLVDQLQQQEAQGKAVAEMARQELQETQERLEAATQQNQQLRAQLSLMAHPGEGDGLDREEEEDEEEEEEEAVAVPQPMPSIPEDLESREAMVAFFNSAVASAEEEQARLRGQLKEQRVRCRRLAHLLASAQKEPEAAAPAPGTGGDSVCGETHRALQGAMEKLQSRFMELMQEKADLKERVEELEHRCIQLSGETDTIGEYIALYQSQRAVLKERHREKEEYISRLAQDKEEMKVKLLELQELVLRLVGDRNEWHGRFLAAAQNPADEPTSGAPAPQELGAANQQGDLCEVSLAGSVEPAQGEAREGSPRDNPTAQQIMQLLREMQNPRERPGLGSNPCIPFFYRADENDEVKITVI
B2: Protein DDI1 homolog 1 (Homo sapiens), Q8WTU0 (parent)
chain: MLITVYCVRRDLSEVTFSLQVSPDFELRNFKVLCEAESRVPVEEIQIIHMERLLIEDHCSLGSYGLKDGDIVVLLQKDNVGPRAPGRAPNQPRVDFSGIAVPGTSSSRPQHPGQQQQRTPAAQRSQGLASGEKVAGLQGLGSPALIRSMLLSNPHDLSLLKERNPPLAEALLSGSLETFSQVLMEQQREKALREQERLRLYTADPLDREAQAKIEEEIRQQNIEENMNIAIEEAPESFGQVTMLYINCKVNGHPLKAFVDSGAQMTIMSQACAERCNIMRLVDRRWAGVAKGVGTQRIIGRVHLAQIQIEGDFLQCSFSILEDQPMDMLLGLDMLRRHQCSIDLKKNVLVIGTTGTQTYFLPEGELPLCSRMVSGQDESSDKEITHSVMDSGRKEH
partner: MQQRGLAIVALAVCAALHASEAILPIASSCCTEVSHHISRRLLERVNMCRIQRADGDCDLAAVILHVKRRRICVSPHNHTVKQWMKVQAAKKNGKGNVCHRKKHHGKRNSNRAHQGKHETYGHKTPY
B3: Protein BANP (Homo sapiens), Q8N9N5-2 (parent)
chain: MMSEHDLADVVQIAVEDLSPDHPVVLENHVVTDEDEPALKRQRLEINCQDPSIKSFLYSINQTICLRLDSIEAKLQALEATCKSLEEKLDLVTNKQHSPIQVPMVAGSPLGATQTCNKVRCAVPGRRQNTIVVKVPGQEDSHHEDGESGSEASDSVSSCGQAGSQSIGSNVTLITLNSEEDYPNGTWLGDENNPEMRVRCAIIPSDMLHISTNCRTAEKMALTLLDYLFHREVQAVSNLSGQGKHGKKQLDPLTIYGIRCHLFYKFGITESDWYRIKQSIDSKCRTAWRRKQRGQSLAVKSFSRRTPNSSSYCPSEPMMSTPPPASELPQPQPQPQALHYALANAQQVQIHQIGEDGQVQVIPQGHLHIAQVPQGEQVQITQDSEGNLQIHHVGQDGQVLQGAQLIAVASSDPAAAGVDGSPLQGSDIQVQYVQLAPVSDHTAGAQTAEALQPTLQPEMQLEHGAIQIQ
partner: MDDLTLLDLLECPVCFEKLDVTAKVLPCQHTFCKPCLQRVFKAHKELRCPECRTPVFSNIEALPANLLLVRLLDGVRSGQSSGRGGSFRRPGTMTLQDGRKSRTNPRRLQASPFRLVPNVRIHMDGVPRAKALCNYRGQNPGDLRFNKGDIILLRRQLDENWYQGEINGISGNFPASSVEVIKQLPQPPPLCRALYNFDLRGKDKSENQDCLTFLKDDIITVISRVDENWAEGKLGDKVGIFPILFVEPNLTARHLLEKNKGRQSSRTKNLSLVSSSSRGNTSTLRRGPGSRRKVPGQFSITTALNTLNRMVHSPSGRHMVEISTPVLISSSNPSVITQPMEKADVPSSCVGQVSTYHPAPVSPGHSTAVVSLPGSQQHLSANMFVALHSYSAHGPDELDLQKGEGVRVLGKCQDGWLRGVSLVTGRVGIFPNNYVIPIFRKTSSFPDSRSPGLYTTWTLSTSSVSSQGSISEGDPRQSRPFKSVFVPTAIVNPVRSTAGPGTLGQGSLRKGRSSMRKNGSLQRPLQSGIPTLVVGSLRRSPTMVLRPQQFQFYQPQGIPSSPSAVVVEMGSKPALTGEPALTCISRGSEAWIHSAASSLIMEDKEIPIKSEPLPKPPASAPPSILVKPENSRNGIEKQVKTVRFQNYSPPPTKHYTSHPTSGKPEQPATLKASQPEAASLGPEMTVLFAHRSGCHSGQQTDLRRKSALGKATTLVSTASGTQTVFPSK
B4: Microtubule-associated tumor suppressor candidate 2 (Homo sapiens), Q5JR59-3 (parent)
chain: MGHCCCKPYNCLQCLDKTNESALVKEKELSIELANIRDEVAFHTAKCEKLQKEKEELERRFEDEVKRLGWQQQAELQELEERLQLQFEAEMARLQEEHGDQLLSIRCQHQEQVEDLTASHDAALLEMENNHTVAITILQDDHDHKVQELMSTHELEKKELEENFEKLRLSLQDQVDTLTFQSQSLRDRARRFEEALRKNTEEQLEIALAPYQHLEEDMKSLKQVLEMKNQQIHEQEKKILELEKLAEKNIILEEKIQVLQQQNEDLKARIDQNTVVTRQLSEENANLQEYVEKETQEKKRLSRTNEELLWKLQTGDPTSPIKLSPTSPVYRGSSSGPSSPARVSTTPR
partner: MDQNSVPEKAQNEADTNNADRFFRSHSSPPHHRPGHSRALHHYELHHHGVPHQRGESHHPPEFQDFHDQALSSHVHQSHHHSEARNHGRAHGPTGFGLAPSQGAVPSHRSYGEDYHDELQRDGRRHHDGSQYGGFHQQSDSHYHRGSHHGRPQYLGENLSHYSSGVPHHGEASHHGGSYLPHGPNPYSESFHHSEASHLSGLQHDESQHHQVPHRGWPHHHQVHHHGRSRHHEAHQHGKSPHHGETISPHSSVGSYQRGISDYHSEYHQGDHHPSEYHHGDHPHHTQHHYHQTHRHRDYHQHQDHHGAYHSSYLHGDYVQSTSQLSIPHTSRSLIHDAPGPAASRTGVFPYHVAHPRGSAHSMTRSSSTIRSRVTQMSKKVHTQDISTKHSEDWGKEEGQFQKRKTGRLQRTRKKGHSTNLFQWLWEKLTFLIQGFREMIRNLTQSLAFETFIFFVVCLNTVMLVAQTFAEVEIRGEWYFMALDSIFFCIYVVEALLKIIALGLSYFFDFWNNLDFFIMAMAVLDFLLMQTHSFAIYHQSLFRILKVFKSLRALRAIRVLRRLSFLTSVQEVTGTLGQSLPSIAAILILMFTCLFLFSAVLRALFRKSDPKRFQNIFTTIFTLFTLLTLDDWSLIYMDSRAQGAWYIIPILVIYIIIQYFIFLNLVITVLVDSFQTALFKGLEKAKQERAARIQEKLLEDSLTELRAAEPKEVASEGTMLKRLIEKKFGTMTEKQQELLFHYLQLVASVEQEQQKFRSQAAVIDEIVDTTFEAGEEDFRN
B5: Nebulette (Homo sapiens), O76041 (parent)
chain: MRVPVFEDIKDETEEEKIGEEENEEDQVFYKPVIEDLSMELARKCTELISDIRYKEEFKKSKDKCTFVTDSPMLNHVKNIGAFISEAKYKGTIKADLSNSLYKRMPATIDSVFAGEVTQLQSEVAYKQKHDAAKGFSDYAHMKEPPEVKHAMEVNKHQSNISYRKDVQDTHTYSAELDRPDIKMATQISKIISNAEYKKGQGIMNKEPAVIGRPDFEHAVEASKLSSQIKYKEKFDNEMKDKKHHYNPLESASFRQNQLAATLASNVKYKKDIQNMHDPVSDLPNLLFLDHVLKASKMLSGREYKKLFEENKGMYHFDADAVEHLHHKGNAVLQSQVKYKEEYEKNKGKPMLEFVETPSYQASKEAQKMQSEKVYKEDFEKEIKGRSSLDLDKTPEFLHVKYITNLLREKEYKKDLENEIKGKGMELNSEVLDIQRAKRASEMASEKEYKKDLESIIKGKGMQAGTDTLEMQHAKKAAEIASEKDYKRDLETEIKGKGMQVSTDTLDVQRAKKASEMASQKQYKKDLENEIKGKGMQVSMDIPDILRAKRTSEIYSQRKYKDEAEKMLSNYSTIADTPEIQRIKTTQQNISAVFYKKEVGAGTAVKDSPEIERVKKNQQNISSVKYKEEIKHATAISDPPELKRVKENQKNISNLQYKEQNYKATPVSMTPEIERVRRNQEQLSAVKYKGELQRGTAISDPPELKRAKENQKNISNVYYRGQLGRATTLSVTPEMERVKKNQENISSVKYTQDHKQMKGRPSLILDTPAMRHVKEAQNHISMVKYHEDFEKTKGRGFTPVVDDPVTERVRKNTQVVSDAAYKGVHPHIVEMDRRPGIIVDLKVWRTDPGSIFDLDPLEDNIQSRSLHMLSEKASHYRRHWSRSHSSSTFGTGLGDDRSEISEIYPSFSCCSEVTRPSDEGAPVLPGAYQQSHSQGYGYMHQTSVSSMRSMQHSPNLRTYRAMYDYSAQDEDEVSFRDGDYIVNVQPIDDGWMYGTVQRTGRTGMLPANYIEFVN
partner: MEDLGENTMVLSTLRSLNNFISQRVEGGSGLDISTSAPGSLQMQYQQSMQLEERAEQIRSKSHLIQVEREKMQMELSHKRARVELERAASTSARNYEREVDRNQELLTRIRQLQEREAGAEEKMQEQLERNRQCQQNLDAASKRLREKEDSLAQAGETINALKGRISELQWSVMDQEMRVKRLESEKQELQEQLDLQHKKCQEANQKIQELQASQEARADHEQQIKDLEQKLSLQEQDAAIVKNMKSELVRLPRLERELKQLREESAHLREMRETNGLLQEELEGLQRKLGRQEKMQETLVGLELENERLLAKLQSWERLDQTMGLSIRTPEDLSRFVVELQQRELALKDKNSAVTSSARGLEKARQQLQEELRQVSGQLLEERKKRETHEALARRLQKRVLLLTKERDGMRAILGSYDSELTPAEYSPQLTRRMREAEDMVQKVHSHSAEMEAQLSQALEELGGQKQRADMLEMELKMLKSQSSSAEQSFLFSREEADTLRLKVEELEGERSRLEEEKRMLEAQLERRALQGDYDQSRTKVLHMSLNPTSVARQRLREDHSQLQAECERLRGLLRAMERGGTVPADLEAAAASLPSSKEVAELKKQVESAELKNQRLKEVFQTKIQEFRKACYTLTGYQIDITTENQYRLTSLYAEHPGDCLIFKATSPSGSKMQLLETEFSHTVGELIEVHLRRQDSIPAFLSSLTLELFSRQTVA

The first test covers variants of B1. Conditions: with goga2_human GOLGA2, Q08379.
T552S: the “effect of a mutation on the interaction” value is given as “with no effect”.

The variants in a further test derive from B2. Conditions: with ccl28_human CCL28, Q9NRJ3.
For the variant N228T, the “effect of a mutation on the interaction” value is “with no effect”.

On to D323N, for which the “effect of a mutation on the interaction” value was “with no effect”.

Turning to G136S, the “effect of a mutation on the interaction” value is on record as “with no effect”.

For the variant S63A, the “effect of a mutation on the interaction” value is recorded as “with no effect”.

R87C: the “effect of a mutation on the interaction” value is reported as “with no effect”.

Regarding R208G, the “effect of a mutation on the interaction” value is listed as “disrupting interaction strength”.

In the next test the parent is B3. Conditions: with sh3r2_human SH3RF2, Q8TEC5.
A162V: the “effect of a mutation on the interaction” value is listed as “with no effect”.

A further test covers variants of B4. Conditions: with ctsr1_human CATSPER1, Q8NEC5.
As for A89V, the “effect of a mutation on the interaction” value is reported as “with no effect”.

The variants in the next test derive from B5. Conditions: with md1l1_human MAD1L1, Q9Y6D9.
Regarding R613Q, the “effect of a mutation on the interaction” value is “with no effect”.

Regarding M351V, the “effect of a mutation on the interaction” value was “with no effect”.

Source of the values: IntAct's records for PubMed 31515488.
